Experimental data taken from the supplement of paper PMC10065799, “High-throughput profiling of sequence recognition by tyrosine kinases and SH2 domains using bacterial peptide display” (eLife, 2023).

Tested on: c-Src
Assay: phosphorylation enrichment, bacterial display (enrichment ratio); higher = better substrate or ligand; peptides without Tyr show the background
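Note: 11-residue human phosphosite peptides and single-mutation variants displayed on the E. coli surface, counted by deep sequencing, each peptide's frequency after selection divided by its frequency in the unselected input library; frequency after pTyr selection over input frequency; kinase dosed for 20-30% of maximal phosphorylation in three min.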

For NHFKIYNLFAE [PTEN_Y68_C71Y_YF], the phosphorylation enrichment was 1.64.

Tested on: AncSZ
Assay: as above

Going from AFAEVYEGQVS [ALK_Y1131_G1128A] to ERSMSYCDESR [SMG1_Y143_S144C], the phosphorylation enrichment falls from 1.07 to 0.788.

Going from RGNMYYENSYA [EGFR_Y113] to SISLKYEGRVY [ABL1_Y167_R166K], the phosphorylation enrichment rises from 0.957 to 1.13.

Going from ATQDNYVLEVR [PTPRZ1_Y2179_D2178N] to NDHHFYLEGTL [ALDOB_Y223_V222F], the phosphorylation enrichment rises from 0.934 to 0.939.

First: RGRKVYLEDGF [PRIM2_Y201]
Second: KSMFVYCTPNK [ATP2A2_Y497_S495F]
The phosphorylation enrichment of the first is lower: 1.04 for the first, 1.22 for the second.

Compared with KSLFHYRQFSA [CPS1_Y1491_YF], WRPFGYPRRRR [BCS1L_Y181] is lower in phosphorylation enrichment: 0.656 for the first, 0.615 for the second.

First: EVDETYVPKEF [ALB_Y521]
Second: DSGRDYVSQFE [APOA1_Y53]
The phosphorylation enrichment of the first is higher: 1.22 for the first, 0.914 for the second.

Going from YRASYYRKGGC [ALK_Y1283] to VGQRPYRPLPE [REEP3_Y170_Q171R], the phosphorylation enrichment falls from 0.808 to 0.584.

First: PHMQTYEVDPN [SDHB_Y61_L65P]
Second: LGPDGYSTVDR [ARVCF_Y901]
The phosphorylation enrichment of the first is lower: 1.19 for the first, 2.11 for the second.

Compared with CKLCQYFLDHL [ATRX_Y1849_Y1847C_YF], FTAVGYHKHFT [NOMO1_Y1137_I1141F] is lower in phosphorylation enrichment: 1.28 for the first, 0.614 for the second.

First: EFQLPYFNMVP [BMPR1A_Y457_YF]
Second: SLIEHYEPSET [PLCD1_Y258_R257H]
The phosphorylation enrichment of the first is lower: 1.01 for the first, 1.05 for the second.

Compared with GHNNVYISEHV [GRIN2A_Y1423_D1421N], NYSKMYCNPDA [KNL1_Y489_A486S] is higher in phosphorylation enrichment: 0.734 for the first, 0.794 for the second.

Compared with VQQVIYATRAL [MYH7_Y422_G425R], GCRSKYVRLWG [KCNQ1_Y184_G186R] is lower in phosphorylation enrichment: 0.663 for the first, 0.628 for the second.

First: RNGDRYFKEIV [DCX_Y64_G67E]
Second: FKNGDYNEVMK [LCT_Y1638]
The phosphorylation enrichment of the first is lower: 0.546 for the first, 0.882 for the second.

First: SPDMLYQFLKQ [RPAP3_Y567_YF]
Second: MSRNLYSGDCY [DDR2_Y736_Y740C]
The phosphorylation enrichment of the first is higher: 0.997 for the first, 0.985 for the second.

Going from KVKVEYDMTVP [AHNAK_Y964_G962V] to GAEIVYKSPVV [MAPT_Y711], the phosphorylation enrichment falls from 0.94 to 0.892.

Going from PADSGYPAFLG [ATP6V1A_Y374_YF] to GAVGNYSGGLA [MGMT_Y158], the phosphorylation enrichment falls from 1.72 to 0.57.

In the case of NHFKIYNLFAE [PTEN_Y68_C71Y_YF], the phosphorylation enrichment is reported as 1.14.

Molecular target: Hck (UniProt P08631)
Sequence (P08631 whole entry, looked up): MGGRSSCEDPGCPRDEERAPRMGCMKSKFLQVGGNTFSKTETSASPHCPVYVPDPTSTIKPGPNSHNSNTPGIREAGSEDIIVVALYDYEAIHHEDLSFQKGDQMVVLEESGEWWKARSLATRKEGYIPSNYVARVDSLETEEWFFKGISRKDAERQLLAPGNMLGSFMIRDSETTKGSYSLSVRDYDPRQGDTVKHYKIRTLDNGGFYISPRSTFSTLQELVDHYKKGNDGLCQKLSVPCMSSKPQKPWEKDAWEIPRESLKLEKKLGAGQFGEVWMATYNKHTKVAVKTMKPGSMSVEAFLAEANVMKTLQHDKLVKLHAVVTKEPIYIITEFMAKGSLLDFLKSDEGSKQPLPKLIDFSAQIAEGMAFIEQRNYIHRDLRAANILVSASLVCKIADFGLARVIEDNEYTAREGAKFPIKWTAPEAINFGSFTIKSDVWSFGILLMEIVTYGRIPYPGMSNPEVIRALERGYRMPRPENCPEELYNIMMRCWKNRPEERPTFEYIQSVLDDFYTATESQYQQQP
Assay: as above

First: AFAEVYEGQVS [ALK_Y1131_G1128A]
Second: ERSMSYCDESR [SMG1_Y143_S144C]
The phosphorylation enrichment of the first is higher: 0.796 for the first, 0.402 for the second.

First: RGNMYYENSYA [EGFR_Y113]
Second: SISLKYEGRVY [ABL1_Y167_R166K]
The phosphorylation enrichment of the first is higher: 0.845 for the first, 0.507 for the second.

Compared with ATQDNYVLEVR [PTPRZ1_Y2179_D2178N], NDHHFYLEGTL [ALDOB_Y223_V222F] is higher in phosphorylation enrichment: 0.411 for the first, 0.43 for the second.

Compared with RGRKVYLEDGF [PRIM2_Y201], KSMFVYCTPNK [ATP2A2_Y497_S495F] is lower in phosphorylation enrichment: 0.852 for the first, 0.568 for the second.

First: KSLFHYRQFSA [CPS1_Y1491_YF]
Second: WRPFGYPRRRR [BCS1L_Y181]
The phosphorylation enrichment of the first is lower: 0.42 for the first, 0.453 for the second.

Compared with EVDETYVPKEF [ALB_Y521], DSGRDYVSQFE [APOA1_Y53] is lower in phosphorylation enrichment: 0.668 for the first, 0.529 for the second.

Compared with YRASYYRKGGC [ALK_Y1283], VGQRPYRPLPE [REEP3_Y170_Q171R] is lower in phosphorylation enrichment: 0.488 for the first, 0.4 for the second.

Going from PHMQTYEVDPN [SDHB_Y61_L65P] to LGPDGYSTVDR [ARVCF_Y901], the phosphorylation enrichment falls from 0.791 to 0.405.

Going from CKLCQYFLDHL [ATRX_Y1849_Y1847C_YF] to FTAVGYHKHFT [NOMO1_Y1137_I1141F], the phosphorylation enrichment falls from 0.456 to 0.426.

Compared with EFQLPYFNMVP [BMPR1A_Y457_YF], SLIEHYEPSET [PLCD1_Y258_R257H] is lower in phosphorylation enrichment: 0.596 for the first, 0.535 for the second.

Going from GHNNVYISEHV [GRIN2A_Y1423_D1421N] to NYSKMYCNPDA [KNL1_Y489_A486S], the phosphorylation enrichment falls from 0.476 to 0.469.

First: VQQVIYATRAL [MYH7_Y422_G425R]
Second: GCRSKYVRLWG [KCNQ1_Y184_G186R]
The phosphorylation enrichment of the first is higher: 8.57 for the first, 0.461 for the second.

First: RNGDRYFKEIV [DCX_Y64_G67E]
Second: FKNGDYNEVMK [LCT_Y1638]
The phosphorylation enrichment of the first is higher: 0.559 for the first, 0.541 for the second.

First: SPDMLYQFLKQ [RPAP3_Y567_YF]
Second: MSRNLYSGDCY [DDR2_Y736_Y740C]
The phosphorylation enrichment of the first is higher: 7.82 for the first, 2.27 for the second.

Compared with KVKVEYDMTVP [AHNAK_Y964_G962V], GAEIVYKSPVV [MAPT_Y711] is higher in phosphorylation enrichment: 0.485 for the first, 0.497 for the second.

In the case of PADSGYPAFLG [ATP6V1A_Y374_YF], the phosphorylation enrichment is reported as 0.959.
